Measured values as given in article PMC5426849.

The substances below were run against fluoresceinated cortactin phospho-Y482 peptide (assay: fluorescence polarisation).

Row | Substance | Kd [µM]
1 | p85α N-terminal SH2 domain, cleaved from GST (domain or fragment) | > 5
2 | Abl SH2 domain, monomeric, cleaved from GST (from UniProt P00519 127-217) (domain or fragment) | > 5
3 | PLCγ C-terminal SH2 domain, cleaved from GST (domain or fragment) | > 5
4 | p85α C-terminal SH2 domain, cleaved from GST (domain or fragment) | > 5
5 | PLCγ N-terminal SH2 domain, cleaved from GST (domain or fragment) | > 5
